Source: article PMC2726290, “Decoding of Methylated Histone H3 Tail by the Pygo-BCL9 Wnt Signaling Complex” (Molecular Cell, 2008)
Substitutions are numbered along the chain they refer to. Numbers in names are those of the source.

B1: WT Pygo: overexpressed wild-type HA-tagged Drosophila Pygo (protein, UniProt Q9V9W8 1-815, looked up)
Protein pygopus: MTHNLGMAPYRLPGPAGGLCPPDFKPPPPTDIISAPSNPKKRRKTSSAANSAAAVAAAAAAAAAANSMQQQQAPPTPQDLLPPPPMGGFGDTIIASNPFDDSPQVSAMSSSAAAAMAAMNQMGGGPGGGHFGGGGPGGHPHWEDRMGMGGGPPPPPHMHPHMHPHHPGGPMGHPHGPHPHMGGPPPMRGMSPMHPHQMGPGPGVGLPPHMNHGRPGGPGGPGGPVPMGSPMGGIAGMGGMSPMGGMGGPSISPHHMGMGGLSPMGGGPNGPNPRAMQGSPMGGPGQNSPMNSLPMGSPMGNPIGSPLGPPSGPGPGNPGNTGGPQQQQQQPPQPPMNNGQMGPPPLHSPLGNGPTGHGSHMPGGPIPGPGPGPGGLVGPGGISPAHGNNPGGSGNNMLGGNPGGGNSNNNGSNTSNASNNNQNPHLSPAAGRLGVPTSMQSNGPSVSSVASSSVPSPATPTLTPTSTATSMSTSVPTSSPAPPAMSPHHSLNSAGPSPGMPNSGPSPLQSPAGPNGPNNNNSNNNNGPMMGQMIPNAVPMQHQQHMGGGPPGHGPGPMPGMGMNQMLPPQQPSHLGPPHPNMMNHPHHPHHHPGGPPPHMMGGPGMHGGPAGMPPHMGGGPNPHMMGGPHGNAGPHMGHGHMGGVPGPGPGPGGMNGPPHPHMSPHHGHPHHHHNPMGGPGPNMFGGGGGGPMGPGGPMGNMGPMGGGPMGGPMGVGPKPMTMGGGKMYPPGQPMVFNPQNPNAPPIYPCGMCHKEVNDNDEAVFCESGCNFFFHRTCVGLTEAAFQMLNKEVFAEWCCDKCVSSKHIPMVKFKC
modifications: HA tag
B2: Pygo-V757E: HA-tagged Drosophila Pygo with point mutation in V757 (in EVND) (protein, UniProt Q9V9W8 1-815, looked up, variant V757E)
Protein pygopus: B1 Protein pygopus with V757E
modifications: HA tag

Test system: pygo null mutant clones in wing discs
Test: Rescue assays in Drosophila pygo null mutant clones
Type: in vivo
Settings: for rescue of pygo mutant phenotypes (notches and bristle defects): anterior wing margin of adult flies bearing pygo mutant clones, overexpression; for rescue of senseless expression: overexpression by GAL4 system in pygo null mutant wing disc clones, third instar larvae
Excerpt: To test whether the binding of Pygo to H3K4me is important for its function in vivo, we conducted rescue assays in Drosophila ([de la Roche and Bienz, 2007]). We introduced a point mutation into V757 (in EVND) of Drosophila Pygo, which corresponds to V350 of hPHD that lines its K4me pocket (Figure 4B) and whose mutation drastically reduces its binding to H3K4me3 (Figure 4E). We then generated pygo null mutant clones in wing discs, one of the best-characterized Wingless-responsive tissues whose development depends on Pygo function ([Belenkaya et al., 2002; de la Roche and Bienz, 2007; Kramps et al., 2002; Parker et al., 2002; Thompson et al., 2002]), and we used the GAL4 system to overexpress the Pygo-V757E mutant in these clones, to test its rescue activity in this tissue.
HA-tagged Pygo-V757E was constructed in pUAST, and multiple independent transformant lines were isolated, as described previously for WT HA-Pygo ([Townsley et al., 2004b]). Two different lines were each tested for rescue activity of pygo null mutant clones in the wing disc, as described ([de la Roche and Bienz, 2007]).

| Molecule | rescue of pygo mutant phenotypes (notches and bristle defects) | rescue of senseless expression |
| --- | --- | --- |
| B1 | rescued all pygo mutant phenotypes | restored expression of senseless |
| B2 | WT Pygo but not Pygo-V757E rescued all pygo mutant phenotypes | no rescue whatsoever was observed |
